Article PMC3196588

Assays:
[1] = target: C3S mutant of human galectin-1 (human) (UniProt P09382); assay: affinity chromatography; galectin-1 C3S (or its site B mutants) coupled to 1 ml NHS-activated Hi-Trap column; 0.1 ml serum from healthy individuals in 1.9 ml PBS circulated 30 min on ice; wash 32 column volumes PBS; elution with 150 mM lactose; bound proteins identified by SDS-PAGE, MALDI-TOF MS and western blot, IgM and haptoglobin quantitated by ELISA
[2] = target: C3S mutant of human galectin-1 (human) (UniProt P09382); assay: affinity chromatography; galectin-1 C3S coupled to 1 ml NHS-activated Hi-Trap column; 0.1 ml serum from metastatic breast cancer patients in 1.9 ml PBS circulated 30 min on ice; wash 32 column volumes PBS; elution with 150 mM lactose; bound proteins identified by SDS-PAGE, MALDI-TOF MS and western blot, IgM and haptoglobin quantitated by ELISA
[3] = target: C3S mutant of human galectin-1 (human) (UniProt P09382); assay: fluorescence polarisation; fluorescence anisotropy inhibition assay: haptoglobin as inhibitor of the interaction of galectin-1 or mutants with a fluorescein tagged thiodigalactoside-amid (tdga) probe; Kd from inhibitory potency, haptoglobin counted as the dimer
[4] = target: C3S mutant of human galectin-1 (human) (UniProt P09382); assay: affinity chromatography; galectin-1 C3S (or C3S N34D) coupled to 1 ml column; 2 mg haptoglobin (pooled from human plasma) in 2 ml PBS circulated 30 min on ice; wash 32 column volumes PBS; elution with 150 mM lactose; unbound fraction rechromatographed

Question: What does the source list for “IgM (human serum) (from UniProt P01591 23-159) (complex)”?
Answer: percent of IgM bound to galectin-1 (mean, healthy sera) [1]: 37%; percent of IgM bound to galectin-1 (mean, cancer sera) [2]: 28%

Question: How did the Kd [3] turn out when “galectin-1 binding fraction of haptoglobin (from UniProt P00738 19-160; P00738 162-406) (complex)” was run?
Answer: < 1000 nM

Question: Which percent bound to the column when rechromatographed [4] does the source give for “galectin-1 non-binding fraction of haptoglobin (from UniProt P00738 19-160; P00738 162-406) (complex)” here?
Answer: < 1%

Question: Which results are given for “haptoglobin (human, unfractionated) (from UniProt P00738 19-160; P00738 162-406) (complex)”?
Answer: percent of haptoglobin bound to galectin-1 (average, control sera) [1]: 30%; percent of haptoglobin bound to galectin-1 (average, cancer sera) [2]: 50%; percent bound to the column [4]: 30%; Kd [3]: 2500 nM
